Measurements reported in paper PMC5797297, “92R Monoclonal Antibody Inhibits Human CCR9^+ Leukemia Cells Growth in NSG Mice Xenografts” (Frontiers in Immunology, 2018).

T1: synthetic peptide hCCR9A aa 2–22 with an additional N-terminal cysteine (Homo sapiens (Human).)
T1 construct: additional cysteine residue at the N terminus; human CCR9 isoform A, residues 2-22; Amine-coupled to a CM5 chip for the kinetic SPR; also called hCCR9 (2–22); source: synthetic peptide
T1 chain: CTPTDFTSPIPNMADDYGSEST

T2: peptide hCCR9 (13–30), corresponding to the N-terminus of the B isoform (Homo sapiens, UniProt P51686-1)
T2 construct: human CCR9, residues 13-30 on the numbering of isoform A (the B isoform starts in M13 of hCCR9-A); source: synthetic peptide
T2 chain: MADDYGSESTSSMEDYVN

T3: peptide hCCR9 (10–30) (Homo sapiens (Human)., UniProt P51686-1)
T3 construct: human CCR9 isoform A, residues 10-30; source: synthetic peptide
T3 chain: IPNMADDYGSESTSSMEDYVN

T4: hCCR9(2–22) synthetic peptide (coat of the ELISA; competitor in SPR) (Homo sapiens, CCR9 isoform A, UniProt P51686)
T4 construct: human CCR9 isoform A, residues 2-22; May be the same peptide as m5; also called hCCR9 (aa 2–22) synthetic peptide; peptide hCCR9 (2–22); source: synthetic peptide
T4 chain: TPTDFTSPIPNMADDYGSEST


Legend:
[1] = target: T5, endogenous CCR9 on MOLT-4 human T-ALL cells (Homo sapiens (Human)., UniProt P51686); assay: flow cytometry on cells; 2 x 10^5 cells blocked with 40 µg/ml rat IgG, incubated with the primary mAb 30 min at 4°C in PBS pH 7.4 with 0.5% BSA, 1% FBS, 0.1% sodium azide; revealed with FITC- or PE-goat F(ab')2 anti-mouse IgG; details: one partner purified
T5 construct: human CCR9 as expressed by MOLT-4 cells; also called CCR9^+ MOLT-4 cells; source: endogenous, on MOLT-4 cells
T5 sequence (P51686 whole entry): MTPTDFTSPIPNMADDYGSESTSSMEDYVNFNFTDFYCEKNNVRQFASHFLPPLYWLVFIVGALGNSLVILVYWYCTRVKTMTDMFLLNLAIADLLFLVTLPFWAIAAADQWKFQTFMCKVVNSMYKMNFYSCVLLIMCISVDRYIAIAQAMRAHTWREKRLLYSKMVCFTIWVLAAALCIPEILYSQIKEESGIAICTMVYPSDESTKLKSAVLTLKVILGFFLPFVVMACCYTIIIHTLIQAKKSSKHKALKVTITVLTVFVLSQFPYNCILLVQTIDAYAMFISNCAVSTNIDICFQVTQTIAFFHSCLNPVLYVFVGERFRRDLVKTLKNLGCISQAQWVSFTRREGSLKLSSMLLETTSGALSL

[2] = target: T6, human chemokine receptor CCR9, A isoform, on stably transfected HEK-293 cells (Homo sapiens (Human)., UniProt P51686-1); assay: as above; details: one partner purified
T6 construct: also called hCCR9-A; hCCR9-HEK-293; source: HEK-293, stably transfected (pCIneo-hCCR9), on cells
T6 sequence (P51686 whole entry, canonical isoform): as the sequence (P51686 whole entry) above

[3] = target: T1, synthetic peptide hCCR9A aa 2–22 with …; assay: SPR; Biacore 3000; Cys-hCCR9A(2–22) peptide amine-coupled at low density to a CM5 chip; mAb as analyte at 0.41 to 33 nM; HBS-EP pH 7.4, 25°C, 30 µl/min; bivalent analyte model; apparent; details: both partners purified
[4] = target: T2, peptide hCCR9 (13–30), corresponding to …; assay: SPR; competition: biotin-K-hCCR9A(2–19) captured on a streptavidin (SA) chip; mAb at 10 nM preincubated 30 min with competitor peptide (0.01–1 µM; 1 µM in Figure 6C,D); HBS-EP pH 7.4; details: both partners purified
[5] = target: T3, peptide hCCR9 (10–30); assay: as above; details: both partners purified
[6] = target: T4, hCCR9(2–22) synthetic peptide (coat of …); assay: ELISA; competitive ELISA: hCCR9(2–22) peptide coated at 1 µg/ml in PBS overnight at 4°C; biotin-labeled mAb mixed with unlabeled mAb (2 µg/ml in PBS–0.5% BSA), 1 h at room temperature; peroxidase-labeled streptavidin; details: both partners purified

Row | binding result [1] | binding result [2] | Kd [3] [nM] | binding result [4] | binding result [5] | binding result [6] | Binder
1 | binds | binds | 8.9 | no binding (tested: 1 µM) | binds | binds | 92R, mouse anti-human CCR9 monoclonal antibody (IgG2a) (antibody, V domains shown, heavy chain variable region of 92R; mouse IgG2a heavy chain constant region (isotype as stated); light chain variable region of 92R; light chain constant region; IgG2a; also called 92R mAb; anti-hCCR9 92R; source: mouse hybridoma, mAb purified from culture supernatants) VH: EVKLEESGGGLVQPGGSMKLSCVASGFTFNKFWMNWVRQSPEKGLEWVAEIRLKSNNYATHYAESVKGRFTISRDDSKSSVYLQMNNLRAEDTGIYYCASDGWFAYWGQGTLVTVSA VL: DVVMTQTPLSLPVSLGDQASISCRSSQSLVHSNGNTYLNWCLQRPGQSPKSLIYKVSNRFSGVPDRFSGSGSGTDFTLKISRVEAEDLGVYFCSQSTHFPRTFGGGTKLEIK
2 | binds |  | 3.6 | no binding (tested: 1 µM) |  | binds | 91R, mouse anti-human CCR9 monoclonal antibody (IgG2b) (antibody, V domains shown, heavy chain variable region of 91R; mouse IgG2b heavy chain constant region (isotype as stated); light chain variable region of 91R; light chain constant region; IgG2b; also called 91R mAb; anti-hCCR9 91R; source: mouse hybridoma, mAb purified from culture supernatants) VH: EVKLEDSGGGLVQPGRSMKLSCVASGFTFSNFWMNWVRQSPEKGLEWVAEIRLKSNNYATHYAESVKGRFTISRDDSKSSVYLQMNNLRTEDTGIYYCTSDGWFAYWGQGTLVTVSA VL: DVVMTQTPLSLPVSLGDQTSISCRSSQSLLHSNGNTYVQWYLRKPGQSPKLLIYKVSNRFPGVPDRFSGSGSGTDFTFKISRVEAEDLGVYFCAQSTHVPRTFGGGTKLEIK
